In patent publication US20200239586A1 (LA TROBE UNIVERSITY, published 2020):

T1: Fn14 gene fragment RW95 on phage (human, UniProt Q9NP84 37-90)
T1 construct: not shown: M13 pIII coat protein (gene fragment library in pHENH6)
T1 sequence: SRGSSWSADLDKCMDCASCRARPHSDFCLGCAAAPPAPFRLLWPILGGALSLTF

T2: Fn14 gene fragment RW114 on phage (human, UniProt Q9NP84 31-70)
T2 construct: not shown: M13 pIII coat protein (gene fragment library in pHENH6)
T2 chain: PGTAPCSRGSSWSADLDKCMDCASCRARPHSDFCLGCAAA

T3: Fn14 gene fragment RW131 on phage (human, UniProt Q9NP84 23-69)
T3 construct: not shown: M13 pIII coat protein (gene fragment library in pHENH6)
T3 chain: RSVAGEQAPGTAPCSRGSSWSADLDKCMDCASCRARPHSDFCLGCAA


Columns and labels:
recombinant Fn14-Fc [1] = molecular target: T4, recombinant Fn14-Fc (human, UniProt Q9NP84 28-77); test: SPR (ProteOn XPR36), mAb captured on anti-mouse IgG, Fn14-Fc analyte, Langmuir fit
T4 construct: also called native Fn14; not shown: Fc region (recognised by anti-human Fc)
Procedure: (§1) The interaction of mouse anti-Fn14 IgG monoclonal antibodies CRCBT-06-001 and CRCBT-06-002 with recombinant Fn14-Fc was measured using the Bio-Rad ProteOn XPR36 essentially as described by Nahshol et al., (2008). Briefly, a GLM ProteOn sensor chip was activated by flowing a mixture of 0.2 M EDC and 0.05 M sulpho-NHS over the chip (150 μl at 30 μl/min for 5 minutes). Rabbit anti-mouse IgG whole molecule (Sigma M-7023) was then coupled to the chip in the vertical orientation by flowing 150 μl of a 50 μg/ml solution in 10 mM acetate buffer (pH 4.5) at 30 μl/min. The remaining coupling sites were then deactivated by flowing 150 μl of 1 M ethanolamine-HCl (pH 8.5) at 30 μl/min. Mouse anti-Fn14 IgG monoclonal antibodies were then bound to the coupled anti-mouse IgG antibody by flowing 150 μl of 100 μg/ml IgG at 25 μl/min over a single channel of the sensor chip in the horizontal direction. […] PBS Tween 20 (0.005%) alone was passed over the remaining channel. Binding sensorgrams were collected and analyzed with the ProteOn Manager 2.1 XPR36 software using the Langmuir or bivalent analyte kinetic models to fit the data and determine the affinity constant KD.
(§2) A Bio-Rad ProteOn XPR36 was used to determine the affinity of mouse monoclonal anti-Fn14 antibodies CRCBT-06-001 and CRCBT-06-002 to recombinant Fn14-Fc. It is clear that both antibodies tested display a high on-rate and a low off-rate. The ProteOn software was used to fit a curve to the sensorgram based on a mathematical model, enabling the kinetics of the interaction (ka, Kd and KD) to be calculated. A number of models can be used to fit the curves to the sensorgram, essentially the models used for each sensorgram were used as they provided the best fit, as evident by the low Chi² value obtained for the residuals.

[2] = molecular target: T5, Fn14 gene fragment RW129 on phage (human, UniProt Q9NP84 32-74); test: phage ELISA, Fn14 gene fragments on phage, CRCBT-06-001 wells versus blank wells
T5 construct: not shown: M13 pIII coat protein (gene fragment library in pHENH6)

[3] = molecular target: T1, Fn14 gene fragment RW95 on phage; test: as above
[4] = molecular target: T6, Fn14 gene fragment RW120 on phage (human, UniProt Q9NP84 31-74); test: as above
T6 construct: not shown: M13 pIII coat protein (gene fragment library in pHENH6)

[5] = molecular target: T2, Fn14 gene fragment RW114 on phage; test: as above
[6] = molecular target: T7, Fn14 gene fragment RW125 on phage (human, UniProt Q9NP84 31-74); test: as above
T7 construct: not shown: M13 pIII coat protein (gene fragment library in pHENH6)

[7] = molecular target: T3, Fn14 gene fragment RW131 on phage; test: as above
recombinant Fn14-Fc [8] = molecular target: T4, recombinant Fn14-Fc; test: SPR (ProteOn XPR36), mAb captured on anti-mouse IgG, Fn14-Fc analyte, bivalent analyte fit
Procedure: as §1, §2

T4 sequence (Q9NP84 28-77): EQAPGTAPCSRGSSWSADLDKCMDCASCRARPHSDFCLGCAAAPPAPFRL
T5 sequence (Q9NP84 32-74): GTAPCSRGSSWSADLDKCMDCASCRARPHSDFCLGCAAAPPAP

Row | Binder | Kd (recombinant Fn14-Fc [1]) [nM] | koff (recombinant Fn14-Fc [1]) [s⁻¹] | kon (recombinant Fn14-Fc [1]) [M⁻¹ s⁻¹] | binding result [2] | binding result [3] | binding result [4] | binding result [5] | binding result [6] | binding result [7] | Kd (recombinant Fn14-Fc [8]) [nM] | koff (recombinant Fn14-Fc [8]) [s⁻¹] | kon (recombinant Fn14-Fc [8]) [M⁻¹ s⁻¹]
1 | CRCBT-06-001 (antibody, IgG2b, V domains shown) VH: QVQLQQSGGGLVQPGGSMKLSCIASGFTFSSYWMSWVRQSPEKGLEWVAEIRSKSDNYATHYAESVKGKFTISRDDSKSRFFLQMNNLRAEDTGIYYCSSTYADYFHYWGQGTDLTVSS VL: DIVMTQTPASLAVSLGQRATISCRASQSVSTSTYSYMHWYQQKPGQPPKLLIKYASSLESGVPARFSGSGSGTDFTLNIHPVEEDDTATYYCQHSWEIPYTFGGGTKLEIKR | 0.768 | 1.81e-05 | 23600 | binds | no binding | binds | binds | binds | binds | – | – | –
2 | CRCBT-06-002 (antibody, IgG1, V domains shown) VH: EVKLQQSGGGLVQPGGSMKLSCVASGFTFSYYWMNWVRQSPEQGLEWIAEIRLQSNDYPTHYAESVKGRFTISRDDSKNSVYLQMNNLRPEDTGIYYCACRYADYFDHWGQGTTLTVSS VL: DTVLTQSPASLVVSLGQRATISCRASQSVSTSDYSYIHWYQQKPGQPPKFLIKYASNRDSGVPARFSGSGSGTDFTLNIHPVEEDDTAIYYCQHSWEIPPTFGAGTKLELQR | – | – | – | – | – | – | – | – | – | 0.935 | 1.42e-05 | 15200
